The test system of assay [1] is Lgr5+ stem cells in small intestinal crypts. In words: Small intestinal crypt culture from Lgr5-GFP mice in Matrigel: cell proliferation and Lgr5-GFP expression. In kind it is cell-based, mouse. As to conditions: for requirement of growth factor to maintain self-renewal of Lgr5+ stem cells: crypts 6 days in the CV condition (CHIR 3 μM, VPA 1 mM). The method, then:
Crypts and single Lgr5-GFP cells were isolated as previously described (Sato et al., 2009). Briefly, the proximal half of the small intestine was harvested, opened longitudinally, and washed with cold PBS to remove luminal content. The tissue was then cut into 2-4 mm pieces with scissors and further washed 5-10 times with cold PBS by pipetting up and down using a 10-ml pipette. Tissue fragments were incubated with 2 mM EDTA in PBS for 30 min on ice. After removal of EDTA, tissue fragments were washed with PBS to release crypts. Supernatant fractions enriched in crypts were collected, passed through a 70 μm cell strainer and centrifuged at 300 g for 5 minutes. The cell pellet was re-suspended with cell culture media without growth factors and centrifuged at 150 g to remove single cells. Crypts were then cultured or used for single cell isolation. To obtain single cells, crypts were incubated in culture medium for 45 minutes at 37° C. and triturated with a glass pipette. Dissociated cells were passed through 20 μm cell strainer, negative stained with propidium iodide and single viable GFP-high cells were sorted by flow cytometry (FACS Aria, BD) as previously described (Sato et al., 2009). Small intestinal crypts isolated from Lgr5-EGFP-ires-CreERT2 mice were embedded in Matrigel and cultured under conventional culture conditions in the presence of EGF, Noggin and R-spondin 1 (collectively referred to as ENR) leading to organoids with crypts and villus-like domains and GFP^+ cells at the crypt tips, consistent with previous reports (Sato et al., 2009). Isolated crypts or single cells were cultured as previously described (Sato et al., 2009) with minimal modification. Briefly, crypts or single cells were entrapped in Matrigel and plated at the center of wells in a 24-well plate. After polymerization of Matrigel (growth factor reduced; BD Bioscience), 500 μl of culture medium (Advanced DMEM/F12 (Life Technologies)) was added containing growth factors including EGF (50 ng/ml, Life Technologies), Noggin (100 ng/ml, Peprotech) and R-spondin 1 (500 ng/ml, R&D) and small molecules including CHIR99021 (3 μM, Stemgent) and Valproic Acid (1 mM, Sigma-Aldrich). For comparison of different culture conditions, small molecules or growth factors were added to freshly isolated crypts immediately after plating in Matrigel to test the ability to minimize potential differentiation of the ISC within the crypts and thus sustain crypt cultures. Cell culture media was changed every other day. For single cell culture, cells were embedded in Matrigel containing Jagged-1 peptide (1 μM; AnaSpec) and Y-27632 (10 μM; Tocris) was added for the first 2 days. Cells were passaged either as cell colonies as previously described (Sato et al., 2009) or as single cells. […]

For assay [2], the system named is Lgr5+ stem/progenitor cells derived from the mouse inner ear. In words: Culture of inner ear (cochlear) Lgr5-GFP epithelial cells in Matrigel. In kind it is cell-based. As to conditions: 8 day cultures; added to EGF+CV or to the EGF+bFGF combination (FIG. 14D, 14E). From the text:
The same culture condition (EGF, Noggin, R-spondin1, or “ENR”) as used in Lgr5+ small intestinal stem cell cultures was first established.
Isolated organ of Corti from Lgr5-GFP mice were dissociated into single cells using accutase and cultured in multiple combinations of soluble factors and small molecules in Matrigel for 8 days. The resulting cultures were further dissociated into single cells and analyzed using FACS. […] In addition, the combination of EGF, bFGF and IGF-1 (designated as EFI) improved cell proliferation and GFP expression compared with the ENR condition (FIG. 14A-14C).
To further investigate the effects of individual growth factors when combined with CHIR and VPA, growth factors including Mitogenic growth factors (EGF, bFGF and IGF-1) as well as the Wnt agonist R-spondin 1 in combination with CHIR and VPA were tested.

B1: Noggin: inhibitor of Bone Morphogenic Proteins (protein, UniProt Q13253 28-232, looked up)
Noggin: QHYLHIRPAPSDNLPLVDLIEHPDPIFDPKEKDLNETLLRSLLGGHYDPGFMATSPPEDRPGGGGGAAGGAEDLAELDQLLRQRPSGAMPSEIKGLEFSEGLAQGKKQRLSKKLRRKLQMWLWSQTFCPVLYAWNDLGSRFWPRYVKVGSCFSKRSCSVPEGMVCKPSKSVHLTVLRWRCQRRGGQRCGWIPIQYPIISECKCSC
For the molecule B1, in assay [1], the “requirement of growth factor to maintain self-renewal of Lgr5+ stem cells” value is “still required”.

B2: R-spondin 1: agent that binds to the LGR5 receptor, Wnt agonist (protein, UniProt Q2MKA7 21-263, looked up)
R-spondin-1: SRGIKGKRQRRISAEGSQACAKGCELCSEVNGCLKCSPKLFILLERNDIRQVGVCLPSCPPGYFDARNPDMNKCIKCKIEHCEACFSHNFCTKCKEGLYLHKGRCYPACPEGSSAANGTMECSSPAQCEMSEWSPWGPCSKKQQLCGFRRGSEERTRRVLHAPVGDHAACSDTKETRRCTVRRVPCPEGQKRRKGGQGRRENANRNLARKESKEAGAGSRRRKGQQQQQQQGTVGPLTSAGPA
For the molecule B2, the “GFP expression on addition of a growth factor” value in assay [2] was “slightly increased”. For the same molecule, the “requirement of growth factor to maintain self-renewal of Lgr5+ stem cells” value in assay [1] is on record as “still required”.

B3: Wnt3a: Wnt pathway activator protein (protein, UniProt P56704 19-352, looked up)
Protein Wnt-3a: SYPIWWSLAVGPQYSSLGSQPILCASIPGLVPKQLRFCRNYVEIMPSVAEGIKIGIQECQHQFRGRRWNCTTVHDSLAIFGPVLDKATRESAFVHAIASAGVAFAVTRSCAEGTAAICGCSSRHQGSPGKGWKWGGCSEDIEFGGMVSREFADARENRPDARSAMNRHNNEAGRQAIASHMHLKCKCHGLSGSCEVKTCWWSQPDFRAIGDFLKDKYDSASEMVVEKHRESRGWVETLRPRYTYFKVPTERDLVYYEASPNFCEPNPETGSFGTRDRTCNVSSHGIDGCDLLCCGRGHNARAERRREKCRCVFHWCCYVSCQECTRVYDVHTCK
In the case of B3, the “cell proliferation of crypt cells (organoid size and cell numbers)” value in assay [1] (crypts cultured 6 days, agent added to ENR condition, compared to ENR) was “increased crypt proliferation”.

B4: R-Spondin 2: agent that binds to the LGR5 receptor (protein, UniProt Q6UXX9 22-243, looked up)
R-spondin-2: QGNRWRRSKRASYVSNPICKGCLSCSKDNGCSRCQQKLFFFLRREGMRQYGECLHSCPSGYYGHRAPDMNRCARCRIENCDSCFSKDFCTKCKVGFYLHRGRCFDECPDGFAPLEETMECVEGCEVGHWSEWGTCSRNNRTCGFKWGLETRTRQIVKKPVKDTILCPTIAESRRCKMTMRHCPGGKRTPKAKEKRNKKKKRKLIERAQEQHSVFLATDRANQ
As for B4, in assay [1] (ENR condition, R-spondin 2 compared to R-spondin 1 at multiple concentrations), the “organoid formation (number of organoids formed at day 5)” value is “better efficacy at lower concentrations”.
